{"source": "patent US12467929", "key": {"[1]": {"target": "recombinant UBE3A protein (Homo sapiens (Human)) (UniProt Q05086)", "sequence (Q05086 whole entry)": "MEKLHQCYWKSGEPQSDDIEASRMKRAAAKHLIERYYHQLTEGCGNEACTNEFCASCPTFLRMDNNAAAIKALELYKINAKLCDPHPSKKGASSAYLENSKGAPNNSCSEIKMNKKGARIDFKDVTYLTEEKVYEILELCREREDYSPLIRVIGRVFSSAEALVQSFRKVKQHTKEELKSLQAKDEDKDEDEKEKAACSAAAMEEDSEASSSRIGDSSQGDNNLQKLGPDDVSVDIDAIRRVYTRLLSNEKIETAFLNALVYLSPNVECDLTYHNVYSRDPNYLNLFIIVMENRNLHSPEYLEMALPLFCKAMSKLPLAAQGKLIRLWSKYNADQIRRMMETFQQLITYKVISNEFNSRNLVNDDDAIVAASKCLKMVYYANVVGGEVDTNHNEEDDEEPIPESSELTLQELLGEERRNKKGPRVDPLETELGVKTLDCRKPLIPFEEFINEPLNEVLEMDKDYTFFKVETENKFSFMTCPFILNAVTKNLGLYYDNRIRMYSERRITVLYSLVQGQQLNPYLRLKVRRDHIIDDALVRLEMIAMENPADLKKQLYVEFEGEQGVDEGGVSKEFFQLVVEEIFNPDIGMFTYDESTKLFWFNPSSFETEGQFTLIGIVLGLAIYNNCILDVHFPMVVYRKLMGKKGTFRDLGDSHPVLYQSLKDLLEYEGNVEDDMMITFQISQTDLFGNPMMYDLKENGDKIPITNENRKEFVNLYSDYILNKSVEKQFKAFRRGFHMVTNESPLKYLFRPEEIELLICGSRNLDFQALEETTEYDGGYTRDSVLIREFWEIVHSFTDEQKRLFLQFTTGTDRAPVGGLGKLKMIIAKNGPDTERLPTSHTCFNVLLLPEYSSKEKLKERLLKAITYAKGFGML", "test": "3-step Simoa; capture Novus; UBE3A 0.1 ng/ml"}, "[2]": {"target": "recombinant UBE3A protein (Homo sapiens (Human)) (UniProt Q05086)", "test": "3-step Simoa; capture GTX; UBE3A 1 ng/ml"}, "[3]": {"target": "recombinant UBE3A protein (Homo sapiens (Human)) (UniProt Q05086)", "test": "2-step Simoa; capture Novus; UBE3A 1 ng/ml"}, "[4]": {"target": "recombinant UBE3A protein (Homo sapiens (Human)) (UniProt Q05086)", "test": "3-step Simoa; capture Novus; UBE3A 0.01 ng/ml"}, "[5]": {"target": "recombinant UBE3A protein (Homo sapiens (Human)) (UniProt Q05086)", "test": "3-step Simoa; capture MS 2F6; UBE3A 10 ng/ml"}, "[6]": {"target": "recombinant UBE3A protein (Homo sapiens (Human)) (UniProt Q05086)", "test": "2-step Simoa; capture GTX; UBE3A 1 ng/ml"}, "[7]": {"target": "recombinant UBE3A protein (Homo sapiens (Human)) (UniProt Q05086)", "test": "2-step Simoa; capture Novus; UBE3A 0.1 ng/ml"}, "[8]": {"target": "recombinant UBE3A protein (Homo sapiens (Human)) (UniProt Q05086)", "test": "3-step Simoa; capture GTX; UBE3A 10 ng/ml"}, "[9]": {"target": "recombinant UBE3A protein (Homo sapiens (Human)) (UniProt Q05086)", "test": "2-step Simoa; capture MS 2F6; UBE3A 1 ng/ml"}, "[10]": {"target": "recombinant UBE3A protein (Homo sapiens (Human)) (UniProt Q05086)", "test": "2-step Simoa; capture GTX; UBE3A 10 ng/ml"}, "[11]": {"target": "recombinant UBE3A protein (Homo sapiens (Human)) (UniProt Q05086)", "test": "2-step Simoa; capture Novus; UBE3A 0.01 ng/ml"}, "[12]": {"target": "recombinant UBE3A protein (Homo sapiens (Human)) (UniProt Q05086)", "test": "2-step Simoa; capture MS 2F6; UBE3A 0.1 ng/ml"}, "[13]": {"target": "recombinant UBE3A protein (Homo sapiens (Human)) (UniProt Q05086)", "test": "3-step Simoa; capture GTX; UBE3A 0.01 ng/ml"}, "[14]": {"target": "recombinant UBE3A protein (Homo sapiens (Human)) (UniProt Q05086)", "test": "2-step Simoa; capture GTX; UBE3A 0.01 ng/ml"}, "[15]": {"target": "recombinant UBE3A protein (Homo sapiens (Human)) (UniProt Q05086)", "test": "3-step Simoa; capture GTX; UBE3A 0.1 ng/ml"}, "[16]": {"target": "recombinant UBE3A protein (Homo sapiens (Human)) (UniProt Q05086)", "test": "3-step Simoa; capture Novus; UBE3A 1 ng/ml"}, "[17]": {"target": "recombinant UBE3A protein (Homo sapiens (Human)) (UniProt Q05086)", "test": "2-step Simoa; capture MS 2F6; UBE3A 0.01 ng/ml"}, "[18]": {"target": "recombinant UBE3A protein (Homo sapiens (Human)) (UniProt Q05086)", "test": "3-step Simoa; capture MS 2F6; UBE3A 0.1 ng/ml"}, "[19]": {"target": "recombinant UBE3A protein (Homo sapiens (Human)) (UniProt Q05086)", "test": "3-step Simoa; capture MS 2F6; UBE3A 1 ng/ml"}, "[20]": {"target": "recombinant UBE3A protein (Homo sapiens (Human)) (UniProt Q05086)", "test": "Simoa head-to-head, Table 10; capture GTX; UBE3A 0.16 ng/ml"}, "[21]": {"target": "recombinant UBE3A protein (Homo sapiens (Human)) (UniProt Q05086)", "test": "2-step Simoa; capture Novus; UBE3A 10 ng/ml"}, "[22]": {"target": "recombinant UBE3A protein (Homo sapiens (Human)) (UniProt Q05086)", "test": "3-step Simoa; capture Novus; UBE3A 10 ng/ml"}, "[23]": {"target": "recombinant UBE3A protein (Homo sapiens (Human)) (UniProt Q05086)", "test": "2-step Simoa; capture MS 2F6; UBE3A 10 ng/ml"}}}
{"substance": "NB500-240 (Novus) (antibody)", "values": [{"measurement": "AEB1", "setting": "[1]", "result": 0.014}, {"measurement": "AEB2", "setting": "[1]", "result": 0.0114}, {"measurement": "Ave AEB", "setting": "[1]", "result": 0.0127}, {"measurement": "Signal to Background", "setting": "[1]", "result": 1.21}, {"measurement": "AEB1", "setting": "[2]", "result": 0.0097}, {"measurement": "AEB2", "setting": "[2]", "result": 0.0091}, {"measurement": "Ave AEB", "setting": "[2]", "result": 0.0094}, {"measurement": "Signal to Background", "setting": "[2]", "result": 1.54}, {"measurement": "AEB1", "setting": "[3]", "result": 0.0174}, {"measurement": "AEB2", "setting": "[3]", "result": 0.0179}, {"measurement": "Ave AEB", "setting": "[3]", "result": 0.0177}, {"measurement": "Signal to Background", "setting": "[3]", "result": 1.06}, {"measurement": "AEB1", "setting": "[4]", "result": 0.011}, {"measurement": "AEB2", "setting": "[4]", "result": 0.0112}, {"measurement": "Ave AEB", "setting": "[4]", "result": 0.0111}, {"measurement": "Signal to Background", "setting": "[4]", "result": 1.06}, {"measurement": "AEB1", "setting": "[5]", "result": 0.0153}, {"measurement": "AEB2", "setting": "[5]", "result": 0.0116}, {"measurement": "Ave AEB", "setting": "[5]", "result": 0.0134}, {"measurement": "Signal to Background", "setting": "[5]", "result": 1.54}, {"measurement": "AEB1", "setting": "[6]", "result": 0.0247}, {"measurement": "AEB2", "setting": "[6]", "result": 0.0237}, {"measurement": "Ave AEB", "setting": "[6]", "result": 0.0242}, {"measurement": "Signal to Background", "setting": "[6]", "result": 3.26}, {"measurement": "AEB1", "setting": "[7]", "result": 0.0167}, {"measurement": "AEB2", "setting": "[7]", "result": 0.0132}, {"measurement": "Ave AEB", "setting": "[7]", "result": 0.0149}, {"measurement": "Signal to Background", "setting": "[7]", "result": 0.9}, {"measurement": "AEB1", "setting": "[8]", "result": 0.0356}, {"measurement": "AEB2", "setting": "[8]", "result": 0.0426}, {"measurement": "Ave AEB", "setting": "[8]", "result": 0.0391}, {"measurement": "Signal to Background", "setting": "[8]", "result": 6.42}, {"measurement": "AEB1", "setting": "[9]", "result": 0.0212}, {"measurement": "AEB2", "setting": "[9]", "result": 0.0206}, {"measurement": "Ave AEB", "setting": "[9]", "result": 0.0209}, {"measurement": "Signal to Background", "setting": "[9]", "result": 1.27}, {"measurement": "AEB1", "setting": "[10]", "result": 0.126}, {"measurement": "AEB2", "setting": "[10]", "result": 0.13}, {"measurement": "Ave AEB", "setting": "[10]", "result": 0.128}, {"measurement": "Signal to Background", "setting": "[10]", "result": 17.3}, {"measurement": "AEB1", "setting": "[11]", "result": 0.0255}, {"measurement": "AEB2", "setting": "[11]", "result": 0.0175}, {"measurement": "Ave AEB", "setting": "[11]", "result": 0.0215}, {"measurement": "Signal to Background", "setting": "[11]", "result": 1.29}, {"measurement": "AEB1", "setting": "[12]", "result": 0.0164}, {"measurement": "AEB2", "setting": "[12]", "result": 0.0185}, {"measurement": "Ave AEB", "setting": "[12]", "result": 0.0175}, {"measurement": "Signal to Background", "setting": "[12]", "result": 1.06}, {"measurement": "AEB1", "setting": "[13]", "result": 0.0064}, {"measurement": "AEB2", "setting": "[13]", "result": 0.0053}, {"measurement": "Ave AEB", "setting": "[13]", "result": 0.0059}, {"measurement": "Signal to Background", "setting": "[13]", "result": 0.96}, {"measurement": "AEB1", "setting": "[14]", "result": 0.0082}, {"measurement": "AEB2", "setting": "[14]", "result": 0.0072}, {"measurement": "Ave AEB", "setting": "[14]", "result": 0.0077}, {"measurement": "Signal to Background", "setting": "[14]", "result": 1.04}, {"measurement": "AEB1", "setting": "[15]", "result": 0.005}, {"measurement": "AEB2", "setting": "[15]", "result": 0.0068}, {"measurement": "Ave AEB", "setting": "[15]", "result": 0.0059}, {"measurement": "Signal to Background", "setting": "[15]", "result": 0.97}, {"measurement": "AEB1", "setting": "[16]", "result": 0.0125}, {"measurement": "AEB2", "setting": "[16]", "result": 0.0145}, {"measurement": "Ave AEB", "setting": "[16]", "result": 0.0135}, {"measurement": "Signal to Background", "setting": "[16]", "result": 1.29}, {"measurement": "AEB1", "setting": "[17]", "result": 0.0183}, {"measurement": "AEB2", "setting": "[17]", "result": 0.0162}, {"measurement": "Ave AEB", "setting": "[17]", "result": 0.0172}, {"measurement": "Signal to Background", "setting": "[17]", "result": 1.05}, {"measurement": "AEB1", "setting": "[18]", "result": 0.0107}, {"measurement": "AEB2", "setting": "[18]", "result": 0.0084}, {"measurement": "Ave AEB", "setting": "[18]", "result": 0.0095}, {"measurement": "Signal to Background", "setting": "[18]", "result": 1.1}, {"measurement": "AEB1", "setting": "[19]", "result": 0.0095}, {"measurement": "AEB2", "setting": "[19]", "result": 0.009}, {"measurement": "Ave AEB", "setting": "[19]", "result": 0.0092}, {"measurement": "Signal to Background", "setting": "[19]", "result": 1.06}, {"measurement": "AEB1", "setting": "[20]", "result": 0.0038}, {"measurement": "AEB2", "setting": "[20]", "result": 0.004}, {"measurement": "Ave AEB", "setting": "[20]", "result": 0.0039}, {"measurement": "Signal to Background", "setting": "[20]", "result": 1.88}, {"measurement": "AEB1", "setting": "[21]", "result": 0.0441}, {"measurement": "AEB2", "setting": "[21]", "result": 0.0461}, {"measurement": "Ave AEB", "setting": "[21]", "result": 0.0451}, {"measurement": "Signal to Background", "setting": "[21]", "result": 2.71}, {"measurement": "AEB1", "setting": "[22]", "result": 0.0168}, {"measurement": "AEB2", "setting": "[22]", "result": 0.0179}, {"measurement": "Ave AEB", "setting": "[22]", "result": 0.0173}, {"measurement": "Signal to Background", "setting": "[22]", "result": 1.65}, {"measurement": "AEB1", "setting": "[23]", "result": 0.0437}, {"measurement": "AEB2", "setting": "[23]", "result": 0.0449}, {"measurement": "Ave AEB", "setting": "[23]", "result": 0.0443}, {"measurement": "Signal to Background", "setting": "[23]", "result": 2.7}]}
